Results reported in PMC5691136, “The role of CXCR3/LRP1 cross-talk in the invasion of primary brain tumors” (Nature Communications, 2017).

Molecular target: CXCR3-A (human CXC chemokine receptor CXCR3, isoform A), stably expressed in U87 cells (human) (UniProt P49682)
Test: plasmon waveguide resonance (PWR); membrane fragments of U87-CXCR3-A or HEK-CXCR3-A cells captured on the polylysine-treated silica sensor; ligand added incrementally in PBS, 22 °C; shifts of the resonance minimum fitted with a hyperbolic single-site function

CXCR3-A (human CXC chemokine receptor CXCR3, isoform A), stably expressed in U87 cells (human), sequence (P49682 whole entry, the tested form may be a part, canonical isoform): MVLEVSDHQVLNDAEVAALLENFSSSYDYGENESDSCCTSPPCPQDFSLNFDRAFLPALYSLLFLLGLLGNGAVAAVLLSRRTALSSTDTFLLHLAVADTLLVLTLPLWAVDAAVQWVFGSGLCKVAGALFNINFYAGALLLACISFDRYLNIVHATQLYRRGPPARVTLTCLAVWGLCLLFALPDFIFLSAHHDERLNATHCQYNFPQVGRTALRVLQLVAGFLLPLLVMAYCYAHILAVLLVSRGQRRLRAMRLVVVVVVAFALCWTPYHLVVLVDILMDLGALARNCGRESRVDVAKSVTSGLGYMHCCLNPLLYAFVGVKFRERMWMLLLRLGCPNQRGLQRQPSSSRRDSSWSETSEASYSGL

Kd: 36 nM
Substance: PS372424 (CXCR3 agonist) (peptide)
